Results reported in patent US20240109974A1 (SHANDONG SIMCERE BIOPHARMACEUTICAL, published 2024).

Legend:
[1] = biological target: T1, human TNFR2 on the surface of CHO-TNFR2 cells (human, UniProt P20333 23-461); assay: flow cytometry on CHO-TNFR2 cells
T1 construct: whole, on cells
T1 sequence (looked up): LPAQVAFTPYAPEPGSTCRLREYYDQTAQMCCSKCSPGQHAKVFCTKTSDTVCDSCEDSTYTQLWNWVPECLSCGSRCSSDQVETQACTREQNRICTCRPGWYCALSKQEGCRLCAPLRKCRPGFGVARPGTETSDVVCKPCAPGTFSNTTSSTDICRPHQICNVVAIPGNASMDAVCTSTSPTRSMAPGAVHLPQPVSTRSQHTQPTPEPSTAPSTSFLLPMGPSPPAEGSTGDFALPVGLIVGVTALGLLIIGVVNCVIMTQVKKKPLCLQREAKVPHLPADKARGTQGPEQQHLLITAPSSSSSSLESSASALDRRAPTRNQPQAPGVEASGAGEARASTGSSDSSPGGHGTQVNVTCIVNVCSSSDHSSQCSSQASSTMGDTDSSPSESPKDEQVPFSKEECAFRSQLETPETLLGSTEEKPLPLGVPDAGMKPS
Procedure: The transfected full-length plasmid of human TNFR2 was purchased from Sino Biological (Cat #HG10417-UT, NCBI Ref Seq: NM_001066.2). The experiment was conducted at a cell density within 80%. The cell medium was discarded; the cells were rinsed with PBS, and digested with 1 ml trypsin for 2 minutes; the digestion was stopped with a Ham's F12 complete medium containing 10% FBS, and then a cell suspension was made. The cell suspension was counted, and then an appropriate amount of cell suspension was centrifuged at 350×g; the supernatant was discarded; a corresponding volume of blocking solution (10% FBS+PBS) at a density of 1×10⁷ cells/ml was added to resuspend the cells, and the mixture was incubated at 4° C. for 30 minutes. After the incubation, the mixture was centrifuged at 350×g to remove the supernatant, and the cells were resuspended in a staining buffer (2% FBS+PBS) to a density of 2×10⁶ cells/ml, and spread onto a 96-well plate, with 50 μl of cell suspension added to each well for later use. The antibody was diluted with PBS for 10-fold gradient dilution from the highest concentration of 20 μg/m (twice the concentration); the diluted antibody was added to the well containing 50 μl of cell suspension, and placed on a microplate shaker for shaking at 500 rpm for 1 minute, so that the antibody was fully mixed with the cells; the mixture was incubated at 4° C. for 1 h. After the incubation, the cells were washed twice with the staining buffer, with 100 μl per well, and centrifuged at 350-g for 5 minutes, and the supernatant was discarded. The PE goat anti-Human IgG Fc antibody (ebioscience, Cat #12-4998-82) was diluted 250-fold with the staining buffer, with a volume of 100 μl per well added to the washed cell wells; the mixture was mixed evenly, and stained at 4° C. for 30 minutes. After the staining, similarly, the cells were washed twice with the staining buffer; finally, the cells were resuspended in 200 μl of staining buffer; signals were detected by a flow cytometer (Thermo Attune NxT). The stronger the signal, the stronger the binding ability of an antibody to TNFR2. The binding curve of an antibody was drawn with antibody concentration as the abscissa and corresponding mean fluorescence intensity (MFI) fold as the ordinate, and fitted with four parameters (GraphPad Prism9) to calculate the EC50 value.

[2] = biological target: T2, Cynomolgus TNFR2-His (Sino 90102-C08H) (cynomolgus monkey, UniProt A0A2K5VET2 132-366); assay: SPR (Biacore T200), antibody captured on Protein A chip
T2 construct: Bought protein; also called cynomolgus monkey TNFR2; recombinant cynomolgus monkey TNFR2 protein; not shown: His tag
T2 sequence: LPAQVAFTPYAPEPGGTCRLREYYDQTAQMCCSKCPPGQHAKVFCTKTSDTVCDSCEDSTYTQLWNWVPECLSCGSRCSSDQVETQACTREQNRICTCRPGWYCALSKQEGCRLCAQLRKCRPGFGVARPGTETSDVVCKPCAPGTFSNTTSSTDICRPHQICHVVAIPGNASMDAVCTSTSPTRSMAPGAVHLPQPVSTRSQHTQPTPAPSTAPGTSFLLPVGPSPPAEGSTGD
Procedure: Biacore was used to detect the specific binding of a test anti-TNFR2 antibody to human and cynomolgus monkey TNFR2 proteins. In this experiment, a Protein A chip was used, the time required for the chip to capture the diluted antibody was determined by manual run, so that the Rmax of the saturated binding to an antigen was 50 RU. […] The affinity of an antibody for an antigen was determined by using multi-cycle dynamics. In each cycle, an antibody was injected and then a TNFR2 protein at a gradient concentration was injected, so that the antigen and the antibody underwent binding and dissociation processes. After each cycle, the Protein A chip was regenerated with Glycine pH 1.5 (removing the protein on the chip). The affinity KD of an antibody and an antigen was fitted with BIAcore T200 analysis software.

[3] = biological target: T3, Human TNFR2-His (Sino 10417-H08H) (human, UniProt P20333 23-257); assay: ELISA, human TNFR2-His coated
T3 construct: Bought protein; also called recombinant human TNFR2 protein; not shown: His tag
T3 sequence (looked up): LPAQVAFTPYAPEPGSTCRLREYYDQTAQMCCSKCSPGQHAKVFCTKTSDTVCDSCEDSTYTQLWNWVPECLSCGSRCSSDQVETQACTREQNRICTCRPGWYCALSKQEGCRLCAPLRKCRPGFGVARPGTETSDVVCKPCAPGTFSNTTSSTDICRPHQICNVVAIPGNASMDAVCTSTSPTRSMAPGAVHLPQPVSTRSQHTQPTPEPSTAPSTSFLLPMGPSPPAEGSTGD
Procedure: The test humanized antibody against TNFR2 (as described in Example 1, the antibody was comprised of variable regions linked to IgG-Fc; the WT chimeric antibody also adopted the IgG-Fc structure) was subjected to 3.33-fold gradient dilution, loaded with 100 μl/well, and incubated with shaking at room temperature for 1.5 hours. The plate was washed, and then a working solution of murine anti-human IgG Fc-HRP (diluted at 1:10000) was added, loaded with 100 μl/well, and incubated with shaking at room temperature for 1.0 hour. The plate was washed again, and then the substrate TMB of HRP was added to develop colour. A stop solution was added to stop the reaction, and then a microplate reader (MD 13) was used to read the absorbance value. The binding curve of an antibody was drawn with antibody concentration as the abscissa and corresponding OD value as the ordinate, and fitted with four parameters (GraphPad Prism9) to calculate the EC50 value. The smaller the EC50 value, the stronger the binding ability of an antibody to human/cynomolgus monkey TNFR2. The binding effect of a humanized antibody was normalized to its corresponding human-murine chimeric antibody WT (see SEQ ID NOs: 38-43 for the sequence). The higher the percentage value, the better the binding effect of the humanized antibody. The results of binding of an anti-TNFR2 antibody to a human TNFR2 protein are shown in FIG. 1 and Table 4, and the results of binding of an anti-TNFR2 antibody to cynomolgus monkey TNFR2 are shown in FIG. 2 and Table 4.

Binder	EC50 [1] [ng/mL]	Kd [2] [nM]	koff [2] [s⁻¹]	kon [2] [M⁻¹ s⁻¹]	EC50 [3] [ng/mL]
219-WT (antibody, V domains shown, Human-murine chimeric wild-type molecule) VH: EVQLQESGAELVRPGASVKLSCKASGYSFTNYWMNWVKQRPGQGLEWIGMIHPSDTETRLNQNFKDKATLTVDKSSSTSYMQLSSPTSEDSAVYYCARGEGLGAARSVSMDYWGQGTTVTVSS VL: DILMTQSPSSLSASLGDRVTISCRASQDISNYLNWYQQKPDGTVKVLIYYTAILHSGVPSRFSGSGSGTDYSLTISNLEQEDIATYFCQQGNTLPWTFGGGTKLEIK	0.026	1.14	0.000562	492000	–
224-WT (antibody, V domains shown, Human-murine chimeric wild-type molecule; also called human-murine chimeric antibody WT of #224) VH: EVQLQESGPEIVKPGASVKLSCTASGFNNKDIYMHWVKQRPEQGLEWIGRIDPATGNTKHDPKFQDKATLSSDTSSNTAYLQFSSLTSEDTAVYYCAHSPYGDFGAMDYWGQGTTVTVSS VL: DIQMTQSPAIMSASLGERVTMTCTASSSVSSNYLHWYQQKPGSSPKLWIYSTSNLPSGVPARFSGSGSGTSYSLTISSMEAEDAATYYCHQYHRSPWTFGGGTKLEIK	0.04	0.897	0.000409	456000	–
001-Hu5 (antibody, V domains shown, Humanized form of #001; also called VH1 + VL4) VH: EVQLVESGGGLVQPGGSLRLSCAASGFAFSTYDLSWVRQAPGKGLEWVAYINNGGISTYYSDTVKGRFTISRDNAKNTLYLQMNSLRAEDTAVYYCVRGPFYGSANYFDYWGQGTLVTVSS VL: DIQMTQSPSSLSASVGDRVTITCRTSESIYSNLPWYQQKPGKSPKLLVYDATKLAEGVPSRFSGSGSGTDYTLTISSLQPEDFATYYCQHFWVTPWTFGQGTKVEIK	0.029	0.475	0.000175	369000	10.2
001-Hu2 (antibody, V domains shown, Humanized form of #001; also called VH2 + VL2) VH: EVQLVESGGGLVQPGGSLRLSCAASGFAFSTYDLSWVRQAPGKGLEWVAYINNGGISTYYSDTVKGRFTISRDNAKNSLYLQMNSLRAEDTAVYYCVRGPFYGSANYFDYWGQGTLVTVSS VL: DIQMTQSPSSLSASVGDRVTITCRTSESIYSNLPWYQQKPGKSPKLLIYDATKLAEGVPSRFSGSGSGTDFTLTISSLQPEDFATYYCQHFWVTPWTFGQGTKVEIK	0.073	0.599	0.000164	273000	9.56
219-Hu3 (antibody, V domains shown, also called VH5 + VL5) VH: QVQLVQSGAEVKKPGSSVKVSCKASGYSFTNYWMNWVRQAPGQGLEWMGMIHPSDTETRLNQNFKDRVTITADKSTSTAYMELSSLRSEDTAVYYCARGEGLGAARSVSMDYWGQGTLVTVSS VL: DIQMTQSPSSLSASVGDRVTITCRASQDISNYLNWYQQKPDGTVKLLIYYTAILHSGVPSRFSGSGSGTDYSLTISSLQPEDFATYFCQQGNTLPWTFGQGTKVEIK	0.018	0.723	0.000399	552000	21
219-Hu1 (antibody, V domains shown, also called VH3 + VL5) VH: QVQLVQSGAEVKKPGASVKVSCKASGYSFTNYWMNWVRQAPGQRLEWMGMIHPSDTETRLNQNFKDRVTITRDTSASTAYMELSSLRSEDTAVYYCARGEGLGAARSVSMDYWGQGTLVTVSS VL: DIQMTQSPSSLSASVGDRVTITCRASQDISNYLNWYQQKPDGTVKLLIYYTAILHSGVPSRFSGSGSGTDYSLTISSLQPEDFATYFCQQGNTLPWTFGQGTKVEIK	0.026	0.532	0.000332	623000	21.3

Further binders by falling Kd [2], results first:

EC50 [1] [ng/mL]	Kd [2] [nM]	koff [2] [s⁻¹]	kon [2] [M⁻¹ s⁻¹]	EC50 [3] [ng/mL]	Binder
0.027	0.473	0.000167	354000	8.94	001-Hu4 (antibody, V domains shown, Humanized form of #001; also called VH2 + VL4) VH: EVQLVESGGGLVQPGGSLRLSCAASGFAFSTYDLSWVRQAPGKGLEWVAYINNGGISTYYSDTVKGRFTISRDNAKNSLYLQMNSLRAEDTAVYYCVRGPFYGSANYFDYWGQGTLVTVSS VL: DIQMTQSPSSLSASVGDRVTITCRTSESIYSNLPWYQQKPGKSPKLLVYDATKLAEGVPSRFSGSGSGTDYTLTISSLQPEDFATYYCQHFWVTPWTFGQGTKVEIK
0.045	0.47	0.00016	340000	9.86	001-Hu1 (antibody, V domains shown, Humanized form of #001; also called VH1 + VL1) VH: EVQLVESGGGLVQPGGSLRLSCAASGFAFSTYDLSWVRQAPGKGLEWVAYINNGGISTYYSDTVKGRFTISRDNAKNTLYLQMNSLRAEDTAVYYCVRGPFYGSANYFDYWGQGTLVTVSS VL: DIQMTQSPSSLSASVGDRVTITCRTSESIYSNLPWYQQKPGKAPKLLLYDATKLAEGVPSRFSGSGSGTDYTLTISSLQPEDFATYYCQHFWVTPWTFGQGTKVEIK
0.035	0.43	0.000155	361000	10.1	001-Hu3 (antibody, V domains shown, Humanized form of #001; also called VH1 + VL3) VH: EVQLVESGGGLVQPGGSLRLSCAASGFAFSTYDLSWVRQAPGKGLEWVAYINNGGISTYYSDTVKGRFTISRDNAKNTLYLQMNSLRAEDTAVYYCVRGPFYGSANYFDYWGQGTLVTVSS VL: DIQMTQSPSSLSASVGDRVTITCRTSESIYSNLPWYQQKPGKAPKLLIYDATKLAEGVPSRFSGSGSGTDYTLTISSLQPEDFATYYCQHFWVTPWTFGQGTKVEIK
0.035	0.252	0.000154	614000	–	001-WT (antibody, V domains shown, Human-murine chimeric wild-type molecule; also called human-murine chimeric antibody WT of #001) VH: EVQLQESGGGLVQPGGSLNLSCAASGFAFSTYDLSWVRQTPEKRLEWVAYINNGGISTYYSDTVKGRFTISRDNAKNTLYLQMSSLKSEDTAMYYCVRGPFYGSANYFDYWGQGTTVTVSS VL: EIVMTQSPASLSLSVGETVTITCRTSESIYSNLPWYQQKQGKSPQLLVYDATKLAEGVPSRFSGSESGTQYSLKINSLQSEDFGTYYCQHFWVTPWTFGGGTKLEIK
